Results taken from US20250027068.
Changes are numbered by the printed parent chain.

B1: PRT-352 (protein)
chain: MSQTEDSESLQRLRDIEDFQAEKKMQNVVYTKWLDGVDVKDHDFRKIVDGNSAYYATPLLNGRGFYDINKDFNRDSDKCAAAVAANMFHYWLDINRDNVDRFLRQNPEKHGIIELPDGQLKLSDFLNTYESDHGYRDKSKLFDFISENFNGPVWTDKLLDNYINGYAYNSKYGRTIEDPTKNTSKINFFKEVFNEKILTNNHSIRNQNEFSVLLIEALYTGKAIGLSYGPAGLRHGLGHIISVWGADLDADGNVVAIYVTDSDDKKLTIGDERVGLKRYKISTDDENRLRLTAYEETHNTGGQIRGLWTLDTGKYAWADYFDKTEQTGTDQAEQ
B2: PRT-361 (protein)
chain: B1 chain with M25K, I94R, H133D, S170Y, G236S, N287G, Y315Q
B3: PRT-346 (protein)
chain: B1 chain with K24E, E147N, S170Y, I215S, G236S, I304V
B4: PRT-353 (protein)
chain: B1 chain with K24E, F65W, I304V
B5: PRT-360 (protein)
chain: B1 chain with M25D, F65W, I94R, H133D, S170Y, G236S, N287G, I304V, Y315Q
B6: PRT-362 (protein)
chain: B1 chain with M25K, I94R, H133D, N287G, Y315Q
B7: PRT-354 (protein)
chain: B1 chain with S52E, S170Y, F210L, I215S, G236S
B8: PRT-368 (protein)
chain: MSQTEDSESLQRLRDIEDFQAEKKDQNVVYTKWLDGVDVKDHDFRKIVDGNIAYYATPLLNGRGWYDINKDFNRDNDKCAAAVAANMFHYWLDRNRDNVDRFLRQNPEKHGIIELPDGQLKLSDFLNTYESDDGYRDKSKLFDFISENFNGPVWTDKLLDNYINGYAYNYKYGRTIEDSTKNTSKINFFKEVFNEKILTNNHSIRNQNEFSVLLIEALYTGKAIGLSYGPAGLRHSLGHIISVWGADLDADGNVVAIYVTDSDDKKLTIGDERVGLKRYKISTDDEGRLRLTAYEETHNTGGQVRGLWTLDTGKQAWADYFDKTEQTGTDQAEQ
B9: PRT-369 (protein)
chain: B8 chain with W65L, F210L, I215S
B10: PRT-370 (protein)
chain: B8 chain with I52S
B11: PRT-336 (protein)
chain: MTITSVWTKGVTPPTPEDFRENNEDVLHAPYVANQGWYDITKTFDGKDNLLCGAATAGNMLHWWFDQNKEEIERYLKKHPEKQKIIFNNQELFDVKAAIDTKDSQTNSKLFDYFRDKAFPGLSARQLGVFPDLVLDMFINGYYLNLGKTQSTDVNRPYQDKDKRGGIFDAVFTRGVQTTLLTARHDLKNKGLNEISDLIKQELTEGKALALSHTYANVRINHVINLWGADFDAEGELIAIYVTDSDANPSIGMKKYFVGRNANGKVAISAKKIEGDNIGAQVLGLFTLSTGQDIWQKLS
B12: PRT-345 (protein)
chain: B11 chain with V32L, T43A, G121N, F130M, V176D, R219S, I238E, N263H
B13: PRT-344 (protein)
chain: B11 chain with V32L, T43A, N88G, G121N, F130M, V176D, R219S, I238E, N263H, I294Q
B14: PRT-337 (protein)
chain: MTITSVWTKGVTPPTPEDFRKNNEDVLHAPYLANQGWYDITKAFDGKDNLLCGAATAGNMLHWWFDQNKEEIERYLKKHPEKQKIIFNNQELFDVKAAIDTKDSQTNSKLFNYFRDKAFPNLSARQLGVMPDLVLDMFINGYYLNLGKTQSTDVNRPYQDKDKRGGIFDAVFTRGDQTTLLTARHDLKNKGLNEISDLIKQELTEGKALALSHTYANVSINHVINLWGADFDAEGNLEAIYVTDSDANASIGMKKYFVGRNAHGKVAISAKKIEGDNIGAQVLGLFTLSTGQDIWQKLS
B15: PRT-338 (protein)
chain: B14 chain with K21E, T290L

The proteins below were run against pooled human IgG (human IgG1,2,3 and 4).

Compared with B1, B2 is lower in Enzyme Activity Endpoint Assay (purified): Fab′2: 229 ng/µL for the first, 86 ng/µL for the second.

Compared with B3, B4 is lower in Enzyme Activity Endpoint Assay (purified): Fab′2: 607 ng/µL for the first, 101 ng/µL for the second.

Going from B5 to B6, the Enzyme Activity Endpoint Assay (purified): Fab′2 rises from 89 ng/µL to 720 ng/µL.

First: B7
Second: B8
The Enzyme Activity Endpoint Assay (purified): Fab′2 of the first is higher: 618 ng/µL for the first, 0 ng/µL for the second.

First: B9
Second: B10
The Enzyme Activity Endpoint Assay (purified): Fab′2 of the first is lower: 259 ng/µL for the first, 654 ng/µL for the second.

Compared with B12, B13 is higher in Enzyme Activity Endpoint Assay (purified): Fab′2: 61 ng/µL for the first, 562 ng/µL for the second.

First: B14
Second: B15
The Enzyme Activity Endpoint Assay (purified): Fab′2 of the first is lower: 0 ng/µL for the first, 766 ng/µL for the second.

Compared with B1, B2 is lower in Enzyme Activity Endpoint Assay (purified): Fc: 302 ng/µL for the first, 243 ng/µL for the second.

First: B3
Second: B4
The Enzyme Activity Endpoint Assay (purified): Fc of the first is lower: 217 ng/µL for the first, 259 ng/µL for the second.

Going from B5 to B6, the Enzyme Activity Endpoint Assay (purified): Fc falls from 241 ng/µL to 225 ng/µL.

Going from B7 to B8, the Enzyme Activity Endpoint Assay (purified): Fc falls from 213 ng/µL to 3 ng/µL.

Going from B9 to B10, the Enzyme Activity Endpoint Assay (purified): Fc rises from 284 ng/µL to 348 ng/µL.

First: B11
Second: B12
The Enzyme Activity Endpoint Assay (purified): Fc of the first is higher: 264 ng/µL for the first, 248 ng/µL for the second.

Compared with B13, B14 is lower in Enzyme Activity Endpoint Assay (purified): Fc: 335 ng/µL for the first, 74 ng/µL for the second.

With B15 the Enzyme Activity Endpoint Assay (purified): Fc was 203 ng/µL.

Compared with B1, B2 is lower in Enzyme Activity Endpoint Assay (purified): IgG: 281 ng/µL for the first, 130 ng/µL for the second.

Going from B3 to B4, the Enzyme Activity Endpoint Assay (purified): IgG rises from 0 ng/µL to 189 ng/µL.

Going from B5 to B6, the Enzyme Activity Endpoint Assay (purified): IgG falls from 191 ng/µL to 0 ng/µL.

B7 and B8 are the same in Enzyme Activity Endpoint Assay (purified): IgG: 0 ng/µL for the first, 0 ng/µL for the second.

Going from B9 to B10, the Enzyme Activity Endpoint Assay (purified): IgG falls from 123 ng/µL to 0 ng/µL.

First: B11
Second: B12
The Enzyme Activity Endpoint Assay (purified): IgG of the first is higher: 370 ng/µL for the first, 123 ng/µL for the second.

First: B13
Second: B14
The Enzyme Activity Endpoint Assay (purified): IgG of the first is lower: 0 ng/µL for the first, 38 ng/µL for the second.

B15 was tested, and the Enzyme Activity Endpoint Assay (purified): IgG was 0 ng/µL.

First: B1
Second: B2
The Enzyme Activity Endpoint Assay (purified): scIgG of the first is lower: 599 ng/µL for the first, 753 ng/µL for the second.

Compared with B3, B4 is higher in Enzyme Activity Endpoint Assay (purified): scIgG: 246 ng/µL for the first, 767 ng/µL for the second.

Compared with B5, B6 is lower in Enzyme Activity Endpoint Assay (purified): scIgG: 684 ng/µL for the first, 299 ng/µL for the second.

Compared with B7, B8 is lower in Enzyme Activity Endpoint Assay (purified): scIgG: 233 ng/µL for the first, 0 ng/µL for the second.

Going from B9 to B10, the Enzyme Activity Endpoint Assay (purified): scIgG falls from 445 ng/µL to 288 ng/µL.

First: B11
Second: B12
The Enzyme Activity Endpoint Assay (purified): scIgG of the first is higher: 965 ng/µL for the first, 772 ng/µL for the second.

First: B13
Second: B14
The Enzyme Activity Endpoint Assay (purified): scIgG of the first is lower: 218 ng/µL for the first, 259 ng/µL for the second.

B15 gave an Enzyme Activity Endpoint Assay (purified): scIgG of 287 ng/µL.

In the case of B11, the Enzyme Activity Endpoint Assay (purified): Fab'2 is reported as 50 ng/µL.
